Results as given in the DeepSol protein solubility set.

Experiment: soluble on expression in E. coli; label from the status in PepcDB or PDB records

Sequence | soluble on expression in E. coli
MSLLQTKPYTFWFITGSQHLYGEDAIEQVRQHSQTMVEKLNKIGELPYTIELKEVLTTPDAIRKMVIAANSDDDCAGMITWMHTFSPAKMWINGLKQLKKPLLHLHTQFNREIPYDDIDMDFMNLNQSAHGDREYGHIGARLNISRKVIVGHWQNNDVQERLGAWMRTAAAFVDGHHLKVARFGDNMREVAVTEGDKVEAQIQFGWSITAFGIGDLVEKMKAVSEDEVRRLFDEYQELYRLSPSILEQDEVKAAVLEQAKMELALKEFLEEGGYTAFTTNFEDLHGMKQLPGLAVQRLMAEGYGFGGEGDWKTAALLRMMKIIADGKGTSFMEDYTYHLAEGNELVLGSHMLEICPTIAANQPEIQVHPLGIGGKEDPARLVFDGADGPALNASLIDLGHRFRLVVNEVEAIKPERDMPKLPVAKVLWKCKPSLSEATEAWIHAGGAHHTVFSFEVTPEQLYDWATLADIEVVFINDKTDVLQFQQQLQWNEAFRRLFKEGHHHHHH | soluble
MFKRLLMVALLVVAPLANAADQTNPYRLMNEAAEKTFNRLKSEQPKIKQSPDYLRTVVREELLPYVQVRYAGALVLGRYYKDSTPAQRDAYFKAFEAYLEQAYGQALAMYNGQNYQIAPEQPLGNADIVSIRVTIVDNGGRPPVRLDFQWRKNSKTGNWQAYDMIAEGVSMITTKQNEWASILRQKGVDGLTQQLESSAKQTITLDQKKLEHHHHHH | soluble
MRNIIFTGKGGVGKTSVAAATALKAADMGYKTLIMSTDPAHSLGDSLDIELGPSPVKVAENLWGQEVSVFGDLNLNWDVVREHFAHLMASRGIEGVYAEEMGVLPGMEELFSLSYIKRYNEEQKDFDLLVVDCAPTGETLRLLSLPETFGWFIKMIRNIEKYMVKPVIRPLSKKVKKLDDFVAPEEVYEKVDNLFSSTEGIIDLLADGTKTTMRLVMNPEKMVIKESMRALTYLNLYGITVDRITINRVMPDQSPDPYFQQWRNIQQKYIDQINSAFAPIPVAEVPLFNNEVVGLEMLRKVGEKVYGDENPLDIF | not soluble
MVRVKVNDRIVEVPPGTSVMDAVFHAGYDVPLFCSEKHLSPIGACRMCLVRIGLPKKGPDGKPLLNEKGEPEIQWQPKLAASCVTAVADGMVVDTLSDVVREAQAGMVEFTLLNHPLDCPTCDKGGACELQDRTVEYGLYEKYYQKGPLELPVYTRFEFTRRHVDKHHPLSPFVILDRERCIHCKRCVRYFEEVPGDEVLDFIERGVHTFIGTMDFGLPSGFSGNITDICPVGALLDLTARFRARNWEMEETPTTCALCPVGCGITADTRSGELLRIRAREVPEVNEIWICDAGRFGHEWADQNRLKTPLVRKEGRLVEATWEEAFLALKEGLKEARGEEVGLYLAHDATLEEGLLASELAKALKTPHLDFQGRTAAPASLFPPASLEDLLQADFALVLGDPTEEAPILHLRLSEFVRDLKPPHRYNHGTPFADLQIKERMPRRTDKMALFAPYRAPLMKWAAIHEVHRPGEEREILLALLGDKEGSEMVAKAKEAWEKAKNPVLILGAGVLQDTVAAERARLLAERKGAKVLAMTPAANARGLEAMGVLPGAKGASWDEPGALYAYYGFVPPEEALKGKRFVVMHLSHLHPLAERYAHVVLPAPTFYEKRGHLVNLEGRVLPLSPAPIENGEAEGALQVLALLAEALGVRPPFRLHLEAQKALKARKVPEAMGRLSFRLKELRPKERKGAFYLRPTMWKAHQAVGKAQEAARAELWAHPETARAEALPEGAQVAVETPFGRVEARVVHREDVPKGHLYLSALGPAAGLRVEGRVLVPAGGEA | soluble
GPGSMAIPPLRASDLSSPSPSIAPQRERTRSVGTRLRTSITRDDAERVLPASSSQVETLARDATTTCEQQLMQEEELCGPSYREVEGRRPSRALSPSGAGDTSGVEDGGRARGREYVEDSDDEDVYNSHVARRIRAFLDSIKAEDFTRNPSPVDVTGMAANGEGIDEEALRQQWLERATVDEARSIAAEAQRELLIVLHDAITLETDLAEMSEDAAVLERAVNHREETVEMLKMQLSIADEYNEELHGAKKEALRKLSDAKTEIALLSQRNATLSKQLHEKEKALQLSLARSASASARTSPPAAERRDEGTITTAELQSALIAATASTGLPNNGSLSTPSSPAQHGECELKGMLRKLQLVCDTLQSTVTAKADLDQQLRQWTMGVGESRADAAACGSASSDAGISQPHGERCAPTDAEQRLLRRRCEDVARCIDSLENDIRMLRAKVRAQQACTDAVEGGSAGRRRSAAEAEAATRPQPVETPGPASASATLPEGPGGSGGCAEPADSNLAFLQRQLDRAQADARRLESELRAEREKSQRQSAAEKKLLENVAYLTRKLRAREALDREARLQRRGEKGGTHGDGGDTADGRRTLLYPHRFSHGDSAGVRRGASTAAGDVCGEGAPTSALRRVNREADAVGMGAATAAARKGRANSQELRQRRESVFAALRDAQRASDERRSSHVVSDTRRSSDVQTSFSPILPTSSSRDAALKASGNAVKSGTRATTPTLTPSRG | not soluble
MTEEIAGFQTSPKAQVQAAFEEIARRSMHALSFLHPSMPVYVSDFTLFEGQWTGCVITPWMLSAVIFPGPDQLWPLRKVSEKIGLQLPYGTMTFTVGELDGVSQYLSCSLMSPLSHSMSIEEGQRLTDDCARMILSLPVTNPDVPHAGRRALLFGRRSGENA | not soluble
VGDFNYYASANWSCEQSKVLYKDEQKVPYEYLRTTGKPKGAIFGLVAEGFFTSQDEITKSPVIEGFNNIQPGDIKYKDQNNDGVINDFDKVMIGGDKPLSYFGIDLGFEWRGLEFSMFWQGVYNKDVLMSDWNLLEGFQTQGQVYGQAYENMLDRWTPETAATATFPRLSAGGNKYNQGNGWGSSFWLRSGNYIRLKNVSLGYNLPDSFCRNYLGGARVKVFVSGQNLFTKAANELVDPEVSFGNYPLQRCISTGINVKF | not soluble
GPLGSPRNANDNNQFYQQKQRQALGEQLYKKVSAKTSNEEAAGKITGMILDLPPQEVFPLLESDELFEQHYKEASAAYESFKKEQEQQTEQA | soluble
MSLPRITALRTIRLPERPKLIWVEVETEDGLTGLGETFRGAQAVEAVLHEQTAPAIIGRAAENITSISSELLNPYVGFGSSSAEVRAASAVDIALWDLAGQRAGVPLHVALGGAARDRVPVYATCAGYDFNTSLGGRRSIGSAELSTGPYDDQVAFMRDAGVLAESLVAEGYAAMKIWPFDDFASITPHHISLTDLKDGLEPFRKIRAAVGQRIEIMCELHSLWGTHAAARICNALADYGVLWVEDPIAKMDNIPAVADLRRQTRAPICGGENLAGTRRFHEMLCADAIDFVMLDLTWCGGLSEGRKIAALAETHARPLAPHDCTGPVALMAGLHLALHAPTAIFQEVVRASLATWYADLVDHLPVIQEGIALAPTRPGLGTALLPHVRKIAGAVVRESGKPREGHHHHHH | soluble
GHHHHHHHHHHGLVPRGSHMNIQSIETYQVRLPLKTPFVTSYGRLEEKAFDLFVITDEQGNQGFGELVAFEQPDYVQETLVTERFIIQQHLIPLLLTEAIEQPQEVSTIFEEVKGHWMGKAALETAIWDLYAKRQQKSLTEFFGPTRRKIPVGISLGIQEDLPQLLKQVQLAVEKGYQRVKLKIRPGYDVEPVALIRQHFPNLPLMVDANSAYTLADLPQLQRLDHYQLAMIEQPFAADDFLDHAQLQRELKTRICLDENIRSLKDCQVALALGSCRSINLKIPRVGGIHEALKIAAFCQENDLLVWLGGMFESGVGRALNLQFASQPTFSFPGDISATERYFYEDIITEPFILEQGTMTVPQGLGIGVTLSQTNLLKYSQYQKIM | soluble
SGVTGAHGFPCCGKGSVEVAEMRDDLSQHQIQEEQELEADMLEQKPQLQVDLDLDPDPDPDPELEIGQVPALLESELYPALKLEAELDTEANSNEESDFEEPMQLVCKIESVHSNMGLPTPQTFRPWSLNSNCRSFTEENHMSACHHSISAQTSKHLFWANKLIQASEHSLQRAINMQLNNGSAGQPIRSPLREAIPTNALCSEEQLQIPDAHSAPPTTSSQAPSPLLSSDLPPPIDLTELITFASSLAMASSSRMDLPSLEHMMKAPPQEALEPSTEPLLTTVEEREPENHAETLPEKPREARAPLKSWSQEDKNFAQSYFDFSKPGIKRATIKGQIQLLQPPATSPLLQGSKEDSVPPGKEKENPLLVKIHFKLSAPTIPEK | soluble
MNFNQFENQNFFNGNPSDTFKDLGKQVFNYFSTPSFVTNIYETDELYYLEAELAGVNKEDISIDFNNNTLTIQATRSAKYKSEQLILDERNFESLMRQFDFEAVDKQHITASFENGLLTITLPKILEHHHHHH | soluble
MEKSLETVPGLDLSGEDIEMYYQYVRFVDRFLRFNRNYQIEYFKLSYPGDGSSEREVDLLKRWIDTVIQLKVKDLDFFDYSWEWGFDNFQLPSTIYICESLVSLKLSTVTLPSVKSVSLPFLRVLKLGAVKFADHLDLETLISGCTALETLAIRFFDRVQVLQVSSQSLLSFTHVAPKLVFTHAVRKPLAEKDLSIVIDAPRLEYLKLSDHQTSSFIIKNPGSLVAVDIDINLSSGFDSRNMIRDFLVGISSVKNMTISSIILKFYDYRFKMLPTFLEICPNLKSLILKSTEELGIKESSMFSGPQDFLPSLEYVEMKMPLKKGLLLEIRMLVGYFLEKATILKKLTLCLDDYRKRKESLIPRILAIPRISTSCEVVVL | soluble
RQNLSSDIDILQSDTMPANAELAGLLQVAVGDTLFRIKVLSKVENRVVDYATMFFPAARLPGLPDAYLRHRSVTRALDDCGVADYTRRFTRVTARLPDAETVDYLGIPKNRPVLHVKSLNVDGEGRPVQYGVTCFNGDLVQLVMEQE | not soluble
MTDTRKFKATDLFSFNNINLDPLTETFNISFYLSYLNKWPSLCVVQESDLSDPTLMGYIMGKSEGTGKEWHTHVTAITVAPNSRRLGLARTMMDYLETVGNSENAFFVDLFVRASNALAIDFYKGLGYSVYRRVIGYYSNPHGKDEDSFDMRKPLSRDVNRESIRENGENFKCSPADVSF | soluble
MAHHHHHHMLYHYDILKYNSNHEYNNCSYFKNTFVHFFDYIYNIKMMKEYNDLKAKICINKEFNILFNILNKMNYSFAYRDKKLIKMNDCLYHTYHIIGIKKISSIGYIFNFKNELNDNFSKVLKTKISNILSIEDIYFLFNRFFYFLLMYIRKFCCFSNKKDTNIPQNEAETFVNSVCNCKQDNCCYKIKTIVLINNIQ | not soluble
MSLKRVVIIGMGFGGIRAARVLAGKGLDVVLVDRNNYHLFQPLLYQVGTAGLEQESIAYPVRAMAREWRGTRFHLAEVAGVDFPAREVVTGNGRIPYDYLIIGAGSVTNYFGLESVERHAFDLKELVDGERLRNHILTAFERAVVEPDPAKRRALMTFVIVGGGPTGVEFAGALMELVRYVLAKDYPELSVQAARVVLVEAFDRLLAAMPQELQVYTLEKLRAMGVEVLFNARVEGHHHHHH | not soluble
MDIVISGGTGLIGRAITEIQGNTYNVITRGPSRTDGNINLVNWNDLRKIRHCDVVINLAGYNIGSKRWNPKIKEEIIRSRIESTRRMVEFISSLDSKPEAFLSGSAIGYYGYGENTVFDENSPPGTGFLAELANAWEDEALKASRYTRTVILRTSNVLSSSGGFLARIMNSRSRRVYYFGDGDQPVSWIHIKDYVNAVKFLMENKDISGPVNMAAPSPVSFADLAHAIAREKGYKEMKIPEFIGKLILGSEMYRELMSGQRVAPKKLTGSGFSFQYPDLESAIKNLLEHHHHHH | not soluble
MGSDKIHHHHHHMIDGDSSPLLRKQSPYPHWQYLHPESGDRLRIVPERGGLVTDWCCNGHELLYLDQERFADPEKSIRGGIPVLFPICGNLPGDLLPLPSGEFILKQHGFARDQPWELQLLEDHSGVKLSFVDSEETRAAYPFSFLLEMVVRPIRNALEIDVNVHNRSQSAMPFSFGLHPYFKVTDLNKVRLEGLPNSCLNHLQMAEAETAIQLAALTEGVDFLTRPAGPVTLVDEASGRSLQLQHENPMDLTVVWTDPPRQMLCLEPWTGPREALISGDRKLEIEAGGQQRLRCSFSINLEKTVRAASC | not soluble
